Measurements: patent US20240383984A1 (Genentech, published 2024)

Key:
human CD3ε = molecular target: T1, human CD3ε (human, UniProt P07766 23-126, limits assumed); assay: ELISA on CD3
T1 construct: also called hCD3ε

[1] = molecular target: T2, human FcRH5 protein fragment (soluble) (human, UniProt Q96RD9 16-851); assay: ELISA on FcRH5 (form of the coated FcRH5 not given)
T2 construct: whole entry named; also called soluble human FcRH5; Human FcRH5 (BIACORE analyte)
T2 sequence: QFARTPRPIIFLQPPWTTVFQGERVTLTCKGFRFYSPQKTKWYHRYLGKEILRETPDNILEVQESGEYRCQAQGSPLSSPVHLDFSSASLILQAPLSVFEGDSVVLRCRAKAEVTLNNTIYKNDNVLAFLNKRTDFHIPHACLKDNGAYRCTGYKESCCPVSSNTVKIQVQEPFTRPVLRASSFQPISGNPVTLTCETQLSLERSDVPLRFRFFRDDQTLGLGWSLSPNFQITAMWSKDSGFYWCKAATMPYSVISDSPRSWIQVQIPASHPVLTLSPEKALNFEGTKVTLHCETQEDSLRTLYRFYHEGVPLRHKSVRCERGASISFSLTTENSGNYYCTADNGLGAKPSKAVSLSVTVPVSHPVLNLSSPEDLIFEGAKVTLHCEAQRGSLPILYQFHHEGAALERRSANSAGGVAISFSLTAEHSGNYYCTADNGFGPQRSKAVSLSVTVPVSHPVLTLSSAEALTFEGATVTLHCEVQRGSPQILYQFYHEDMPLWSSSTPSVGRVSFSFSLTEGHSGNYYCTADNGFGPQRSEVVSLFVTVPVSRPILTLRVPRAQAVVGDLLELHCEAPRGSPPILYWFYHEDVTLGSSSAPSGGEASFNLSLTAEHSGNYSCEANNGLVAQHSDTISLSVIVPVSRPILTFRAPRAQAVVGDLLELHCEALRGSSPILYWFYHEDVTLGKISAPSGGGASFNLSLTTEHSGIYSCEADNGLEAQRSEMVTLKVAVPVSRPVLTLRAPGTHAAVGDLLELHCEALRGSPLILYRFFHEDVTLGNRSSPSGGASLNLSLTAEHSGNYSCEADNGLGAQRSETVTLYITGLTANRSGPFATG

[2] = molecular target: T2, human FcRH5 protein fragment (soluble); assay: SPR, hIgG capture, screening
[3] = molecular target: T2, human FcRH5 protein fragment (soluble); assay: SPR, hIgG capture, 1:1 model
Procedure: (§1) Briefly, a human IgG capture surface was generated on a Series S CM5 chip using amine coupling and the human IgG capture kit (GE Life Sciences, Piscataway, NJ). Test antibodies were then captured on flow cells 2, 3, or 4, with flow cell 1 used as a reference. An FcRH5 protein fragment was used as the analyte, with a flow rate of […]. Between injections the capture surface was regenerated by a 30-second injection of 3M magnesium chloride or 10 mM glycine, pH 1.5. Interactions were assessed at 25° C. in 10 mM HEPES pH7.4, 150 mM NaCl, and 0.05% Tween 20 (HBSP). Reference data from the reference flow cell and from injection of buffer alone were subtracted prior to kinetic analysis. Kinetic information was calculated by fitting data to a 1:1 binding model. Reference subtraction and data fitting were performed using BIAevaluation software (GE Life Sciences, Piscataway, NJ).
(§2) Kinetic characterization experiments were carried out (see Table 8). In these experiments, binding of soluble FcRH5 protein fragment to purified antibodies in human TDB antibody format was analyzed at six different non-zero concentrations (a 1:3 dilution series, one concentration injected twice as a replicate). Flow rate was set at 40 μl/min and association and dissociation monitored for 600 s.

[4] = molecular target: T3, cynomolgus FcRH5 protein fragment (soluble) (cynomolgus monkey); assay: SPR, hIgG capture, 1:1 model
T3 construct: whole entry named; also called Cyno FcRH5 (BIACORE analyte)
T3 chain: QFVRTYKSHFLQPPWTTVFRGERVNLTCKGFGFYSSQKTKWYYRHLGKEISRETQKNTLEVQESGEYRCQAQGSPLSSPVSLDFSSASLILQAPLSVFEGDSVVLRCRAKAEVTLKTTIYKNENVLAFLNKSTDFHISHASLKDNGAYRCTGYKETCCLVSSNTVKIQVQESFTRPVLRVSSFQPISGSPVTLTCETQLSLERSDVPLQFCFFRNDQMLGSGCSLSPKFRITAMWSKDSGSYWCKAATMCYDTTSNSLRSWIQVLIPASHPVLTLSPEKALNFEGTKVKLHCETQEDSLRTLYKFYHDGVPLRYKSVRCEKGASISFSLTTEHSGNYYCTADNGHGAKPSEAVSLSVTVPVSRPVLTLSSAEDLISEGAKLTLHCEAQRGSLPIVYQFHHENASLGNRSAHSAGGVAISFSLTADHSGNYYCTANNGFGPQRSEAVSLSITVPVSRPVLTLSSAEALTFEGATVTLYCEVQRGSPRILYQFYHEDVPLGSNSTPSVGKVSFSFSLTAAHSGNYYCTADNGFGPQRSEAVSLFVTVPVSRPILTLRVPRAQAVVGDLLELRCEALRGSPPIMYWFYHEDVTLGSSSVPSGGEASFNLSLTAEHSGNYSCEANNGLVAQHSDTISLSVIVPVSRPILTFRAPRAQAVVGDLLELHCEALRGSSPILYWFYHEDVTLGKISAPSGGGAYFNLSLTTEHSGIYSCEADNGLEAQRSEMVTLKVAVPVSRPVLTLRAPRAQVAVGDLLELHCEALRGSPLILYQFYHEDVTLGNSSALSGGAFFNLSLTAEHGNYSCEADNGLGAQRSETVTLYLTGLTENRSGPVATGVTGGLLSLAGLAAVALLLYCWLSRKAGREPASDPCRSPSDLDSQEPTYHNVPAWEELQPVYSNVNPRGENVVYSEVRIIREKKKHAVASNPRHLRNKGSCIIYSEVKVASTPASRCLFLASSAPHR
Procedure: as §1, §2

[5] = molecular target: T2, human FcRH5 protein fragment (soluble); assay: BIACORE, human IgG1, soluble human FcRH5
[6] = molecular target: T2, human FcRH5 protein fragment (soluble); assay: SPR (BIACORE), IgG captured via anti-human IgG, FcRH5 protein fragment as analyte (100 and 500 nM)
[7] = molecular target: T4, human FcRH1 (full-length, on SVT2 cells) (human, UniProt Q96LA6 17-429); assay: FACS, SVT2 cells
T4 construct: whole, on cells; also called SVT2-FcRH1
T4 sequence (looked up): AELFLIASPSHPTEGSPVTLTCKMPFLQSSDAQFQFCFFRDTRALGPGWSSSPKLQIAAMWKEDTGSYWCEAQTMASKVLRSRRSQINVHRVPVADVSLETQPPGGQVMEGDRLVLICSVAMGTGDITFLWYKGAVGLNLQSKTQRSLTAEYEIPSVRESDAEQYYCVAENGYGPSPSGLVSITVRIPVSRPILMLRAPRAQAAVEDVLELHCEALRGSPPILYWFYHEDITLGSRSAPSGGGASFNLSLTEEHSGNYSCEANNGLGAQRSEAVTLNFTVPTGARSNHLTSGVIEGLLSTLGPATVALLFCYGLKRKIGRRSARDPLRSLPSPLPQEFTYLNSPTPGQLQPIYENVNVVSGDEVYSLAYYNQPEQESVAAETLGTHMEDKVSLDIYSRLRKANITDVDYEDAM
Procedure: (§3) Human FcRH5, cyno FcRH5, human FcRH1, FcRH2, FcRH3, and FcRH4 transfected mouse SVT2 cells were used to test binding and cross-reactivity of FcRH5 TDBs. The method was carried out as follows. Cultured SVT2 cells were lifted using non-enzyme cell dissociation buffer (Sigma, #C5914). 1×10⁵ cells were suspended in 100 μL and incubated with FcRH5 TDBs at 3 μg/ml. […] Cells were washed twice with FACS buffer before flow cytometry analysis was carried out on a FACSCalibur.

[8] = molecular target: T5, human FcRH4 (full-length, on SVT2 cells) (human, UniProt Q96PJ5 20-515); assay: FACS, SVT2 cells
T5 construct: whole, on cells; also called SVT2-FcRH4
T5 sequence (looked up): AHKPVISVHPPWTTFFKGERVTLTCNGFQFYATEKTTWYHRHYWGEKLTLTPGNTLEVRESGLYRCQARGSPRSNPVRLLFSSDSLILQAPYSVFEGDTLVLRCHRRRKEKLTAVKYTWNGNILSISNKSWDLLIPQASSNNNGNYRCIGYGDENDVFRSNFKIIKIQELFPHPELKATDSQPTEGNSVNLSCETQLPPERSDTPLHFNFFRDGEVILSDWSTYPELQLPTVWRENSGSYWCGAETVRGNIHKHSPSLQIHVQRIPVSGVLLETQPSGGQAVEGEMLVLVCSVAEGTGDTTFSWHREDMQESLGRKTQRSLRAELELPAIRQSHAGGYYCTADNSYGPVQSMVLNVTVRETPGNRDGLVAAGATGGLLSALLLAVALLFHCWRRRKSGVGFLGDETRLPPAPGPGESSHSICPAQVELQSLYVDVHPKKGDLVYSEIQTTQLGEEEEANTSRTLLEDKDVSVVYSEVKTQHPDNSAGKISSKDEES
Procedure: as §3

[9] = molecular target: T2, human FcRH5 protein fragment (soluble); assay: BIACORE, TDB format

T1 sequence (P07766 23-126 limits assumed): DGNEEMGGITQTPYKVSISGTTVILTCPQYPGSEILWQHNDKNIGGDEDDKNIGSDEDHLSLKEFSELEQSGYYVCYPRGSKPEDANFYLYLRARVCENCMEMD

B1: bis-Fab B (bispecific antibody, V domains shown)
VH 1: EVQLVESGPGLVKPSETLSLTCTVSGFSLTRFGVHWVRQPPGKGLEWLGVIWRGGSTDYNAAFVSRLTISKDNSKNQVSLKLSSVTAADTAVYYCSNHYYGSSDYALDNWGQGTLVTVSS
VL 1: DIQMTQSPSSLSASVGDRVTITCKASQDVRNLVVWFQQKPGKAPKLLIYSGSYRYSGVPSRFSGSGSGTDFTLTISSLQPEDFATYYCQQHYSPPYTFGQGTKVEIK
VH 2: EVQLVQSGAEVKKPGASVKVSCKASGFTFTSYYIHWVRQAPGQGLEWIGWIYPENDNTKYNEKFKDRVTITADTSTSTAYLELSSLRSEDTAVYYCARDGYSRYYFDYWGQGTLVTVSS
VL 2: DIVMTQSPDSLAVSLGERATICCKSSQSLLNSRTRKNYLAWYQQKPGQSPKLLIYWTSTRKSGVPDRFSGSGSGTDFTLTISSLQAEDVAVYYCKQSFILRTFGQGTKVEIK
notes: bis-Fab: 1G7.v85 Fab (HC A114C, constant part) crosslinked to 38E4.v1 Fab (LC N22C)
With B1 as the binder, how does the “EC50 (read off the curve)” value (human CD3ε) read?
Its value is roughly 7 ng/mL.

What about the “EC50 (read off the curve)” value [1] of the same binder?
The value was roughly 10 ng/mL.

B2: hu1G7.v85 (hIgG1) (antibody, V domains shown)
VH: EVQLVESGPGLVKPSETLSLTCTVSGFSLTRFGVHWVRQPPGKGLEWLGVIWRGGSTDYNAAFVSRLTISKDNSKNQVSLKLSSVTAADTAVYYCSNHYYGSSDYALDNWGQGTLVTVSS
VL: DIQMTQSPSSLSASVGDRVTITCKASQDVRNLVVWFQQKPGKAPKLLIYSGSYRYSGVPSRFSGSGSGTDFTLTISSLQPEDFATYYCQQHYSPPYTFGQGTKVEIK
notes: bivalent hIgG1; also called hu1G7.v1.4.M64V
What does the source list for B2?
Kd [2]: 2.5 nM; Kd [3]: 2.5 nM; koff [3]: 0.002 s⁻¹; kon [3]: 600000 M⁻¹ s⁻¹; Kd [4]: 7.2 nM; koff [4]: 0.001 s⁻¹; kon [4]: 100000 M⁻¹ s⁻¹; Fold improvement over hu1G7.v1 [5]: 17 fold; Kd [5]: 0.8 nM; Kd [6]: 2.5 nM

B3: hu1G7.v1.7/38E4.v1 TDB (bispecific antibody, V domains shown)
VH 1: EVQLVESGPGLVKPSETLSLTCTVSGFSTTRFGVHWVRQPPGKGLEWLGVIWRGGSTDYNAAFMSRLTISKDNSKNQVSLKLSSVTAADTAVYYCSNHYYGSSDYALDNWGQGTLVTVSS
VL 1: DIQMTQSPSSLSASVGDRVTITCKASQDVRNLVVWFQQKPGKAPKLLIYSGYYRYTGVPSRFSGSGSGTDFTLTISSLQPEDFATYYCQQHYQPPYTFGQGTKVEIK
VH 2: EVQLVQSGAEVKKPGASVKVSCKASGFTFTSYYIHWVRQAPGQGLEWIGWIYPENDNTKYNEKFKDRVTITADTSTSTAYLELSSLRSEDTAVYYCARDGYSRYYFDYWGQGTLVTVSS
VL 2: DIVMTQSPDSLAVSLGERATINCKSSQSLLNSRTRKNYLAWYQQKPGQSPKLLIYWTSTRKSGVPDRFSGSGSGTDFTLTISSLQAEDVAVYYCKQSFILRTFGQGTKVEIK
notes: knob-into-hole TDB; also called 1G7.v1.7 TDB
Does B3 bind [7]?
Result: no binding (tested: 3 µg/ml)

Does B3 bind [8]?
Result: no binding (tested: 3 µg/ml)

What about the Kd [9] of the same binder?
The Kd was 0.6 nM.

B4: hu1G7.v1.5/38E4.v1 TDB (bispecific antibody, V domains shown)
VH 1: EVQLVESGPGLVKPSETLSLTCTVSGFSLTRFGVHWVRQPPGKGLEWLGVIWRGGSTDYNAAFMSRLTISKDNSKNQVSLKLSSVTAADTAVYYCSNHYYGSSDYALDNWGQGTLVTVSS
VL 1: DIQMTQSPSSLSASVGDRVTITCKASQDVSNIVVWFQQKPGKSPKLLIYSGYYRYTGVPSRFSGSGSGTDFTLTISSLQPEDFATYYCQQQFQPPYTFGQGTKVEIK
VH 2: EVQLVQSGAEVKKPGASVKVSCKASGFTFTSYYIHWVRQAPGQGLEWIGWIYPENDNTKYNEKFKDRVTITADTSTSTAYLELSSLRSEDTAVYYCARDGYSRYYFDYWGQGTLVTVSS
VL 2: DIVMTQSPDSLAVSLGERATINCKSSQSLLNSRTRKNYLAWYQQKPGQSPKLLIYWTSTRKSGVPDRFSGSGSGTDFTLTISSLQAEDVAVYYCKQSFILRTFGQGTKVEIK
notes: knob-into-hole TDB; also called 1G7.v1.5 TDB
Does B4 bind [7]?
Result: no binding (tested: 3 µg/ml)

Does B4 bind [8]?
Result: no binding (tested: 3 µg/ml)

And the Kd [9]?
Its Kd is 1.1 nM.
